Source: patent US20140004136A1 (CENTRE NATIONAL DE LA RECHERCHE SCIENTIFIQUE, published 2014)

Experiments:
[1] = biological target: T1, murine major histocompatibility complex class II molecule I-A^d (murine, UniProt P04228 24-218; P01921 28-226, limits assumed); assay: competition with reference peptides on transfected fibroblasts, IL-2 secretion of T hybridoma 26.2
T1 construct: whole, on cells;extracellular; Expressed on transfected fibroblasts
T1 sequence (MHC II alpha, looked up): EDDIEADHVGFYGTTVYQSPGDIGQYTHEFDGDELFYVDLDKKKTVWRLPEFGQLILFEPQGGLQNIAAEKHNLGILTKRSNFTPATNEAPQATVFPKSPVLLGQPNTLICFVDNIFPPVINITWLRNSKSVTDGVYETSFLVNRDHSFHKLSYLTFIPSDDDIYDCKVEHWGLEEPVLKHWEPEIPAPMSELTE
T1 sequence (MHC II beta, looked up): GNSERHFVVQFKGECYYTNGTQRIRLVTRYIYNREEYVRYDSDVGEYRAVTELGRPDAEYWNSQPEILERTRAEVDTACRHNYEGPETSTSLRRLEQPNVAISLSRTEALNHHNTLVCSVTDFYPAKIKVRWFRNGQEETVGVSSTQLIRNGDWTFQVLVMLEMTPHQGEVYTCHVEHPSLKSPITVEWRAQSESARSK

[2] = biological target: T2, murine major histocompatibility complex class II molecule I-E^d (murine, UniProt P01904 26-216; P01915 32-225, limits assumed); assay: competition with reference peptides on transfected fibroblasts, IL-2 secretion of T hybridoma 26.1
T2 construct: whole, on cells;extracellular; Expressed on transfected fibroblasts
T2 sequence (MHC II alpha, looked up): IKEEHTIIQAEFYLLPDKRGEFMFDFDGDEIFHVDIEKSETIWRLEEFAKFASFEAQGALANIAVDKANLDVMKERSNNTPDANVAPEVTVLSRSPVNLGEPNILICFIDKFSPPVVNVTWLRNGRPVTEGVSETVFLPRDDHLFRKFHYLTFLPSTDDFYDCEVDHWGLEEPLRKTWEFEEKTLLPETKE
T2 sequence (MHC II beta, looked up): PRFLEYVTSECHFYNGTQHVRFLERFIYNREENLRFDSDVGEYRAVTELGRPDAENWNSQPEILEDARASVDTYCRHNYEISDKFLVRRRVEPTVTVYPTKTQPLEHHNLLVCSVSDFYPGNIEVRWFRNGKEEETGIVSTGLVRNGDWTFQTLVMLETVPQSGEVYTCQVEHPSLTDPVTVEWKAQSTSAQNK

[3] = biological target: T3, murine major histocompatibility complex class II molecule I-A^k (murine, UniProt P01910 24-218; P06343 28-224, limits assumed); assay: competition with reference peptides on transfected fibroblasts, IL-2 secretion of T hybridoma E7E9
T3 construct: whole, on cells;extracellular; Expressed on transfected fibroblasts

binding result [1]: binds
binding result [2]: binds
binding result [3]: binds
B1: 131-151 peptide of the U1-70K protein (RIHMVYSKRSGKPRGYAFIEY) (peptide)
peptide: RIHMVYSKRSGKPRGYAFIEY
notes: Synthetic peptide; also called parent peptide; non-phosphorylated peptide
